Paper PMC6849236

Experiments:
[1] = molecular target: CBM3-CtCoh-CcsCoh-RfCoh synthetic mini-scaffoldin (C. thermocellum ATCC 27405 | C. cellulovorans ATCC 35296 | R. flavefaciens)
[2] = molecular target: CBM3-CtCoh-CcsCoh-RfCoh synthetic mini-scaffoldin (C. thermocellum ATCC 27405 | C. cellulovorans ATCC 35296 | R. flavefaciens); assay: pull-down; RAC pull-down: cell lysate supernatants of dockerin-containing enzymes (in slight excess) mixed with 0.5 mL cell lysate supernatant of CBM3-Scaf3, 2 mg RAC added, room temperature 5 min; RAC pellet washed three times in 100 mM HEPES pH 7.5, 50 mM NaCl, 1 mM CaCl2; 12% SDS-PAGE, band intensities

CDP-CtDoc, sequence (A3DH67 whole entry): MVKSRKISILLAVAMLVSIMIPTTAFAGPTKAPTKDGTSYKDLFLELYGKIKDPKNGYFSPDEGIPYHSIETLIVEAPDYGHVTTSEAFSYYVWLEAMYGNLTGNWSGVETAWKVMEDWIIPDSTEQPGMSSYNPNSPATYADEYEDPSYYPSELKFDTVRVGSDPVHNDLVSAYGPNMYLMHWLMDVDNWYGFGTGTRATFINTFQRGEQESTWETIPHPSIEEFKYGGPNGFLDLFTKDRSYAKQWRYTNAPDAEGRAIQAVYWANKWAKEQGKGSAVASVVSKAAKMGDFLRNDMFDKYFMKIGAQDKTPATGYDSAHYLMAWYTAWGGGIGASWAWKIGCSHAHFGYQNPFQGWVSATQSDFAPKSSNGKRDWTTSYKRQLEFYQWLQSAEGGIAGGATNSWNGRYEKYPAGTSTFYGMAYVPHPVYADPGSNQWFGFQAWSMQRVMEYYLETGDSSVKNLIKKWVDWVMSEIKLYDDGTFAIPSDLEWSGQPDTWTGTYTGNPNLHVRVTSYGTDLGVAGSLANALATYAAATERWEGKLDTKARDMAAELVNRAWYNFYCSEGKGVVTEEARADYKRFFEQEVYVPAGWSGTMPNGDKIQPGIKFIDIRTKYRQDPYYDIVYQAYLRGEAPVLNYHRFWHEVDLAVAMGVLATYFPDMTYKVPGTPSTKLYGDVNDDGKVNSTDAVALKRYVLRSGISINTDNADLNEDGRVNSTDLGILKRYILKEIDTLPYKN

## CDP-CtDoc (from UniProt A3DH67 673-741) (enzyme)
[1]
  specific activity of RAC immobilized CBM3-Scaf3/CDP-CtDoc; 0.5 mL cell lysate supernatant of CBM3-Scaf3 mixed with different volumes of CDP-CtDoc supernatant, highest at 1 mL, no increase with excess: 0.72 U mL^−1
[2]
  stoichiometry N: 1

## CDP-RfDoc (from UniProt Q9AE53 787-879) (enzyme)
[1]
  specific activity of RAC immobilized CBM3-Scaf3/CDP-RfDoc; 0.5 mL cell lysate supernatant of CBM3-Scaf3 mixed with CDP-RfDoc supernatant, highest at 2 mL: 0.71 U mL^−1
[2]
  stoichiometry N: 1

## PGM-CcsDoc (enzyme)
[1]
  specific activity of RAC immobilized CBM3-Scaf3/PGM-CcsDoc; 0.5 mL cell lysate supernatant of CBM3-Scaf3 mixed with PGM-CcsDoc supernatant, highest at 2 mL: 23 U mL^−1
[2]
  stoichiometry N: 1

## PGM-RfDoc (from UniProt Q9AE53 787-879) (enzyme)
[1]
  specific activity of RAC immobilized CBM3-Scaf3/PGM-RfDoc; 0.5 mL cell lysate supernatant of CBM3-Scaf3 mixed with PGM-RfDoc supernatant, highest at 2 mL: 22.4 U mL^−1
[2]
  stoichiometry N: 1
